Experimental data published in doi:10.1101/2022.11.04.515266.

Key:
[1] = target: Sinorhizobium meliloti Clr, C-terminally His6-tagged (Sinorhizobium meliloti); assay: crystal structure
[2] = target: Sinorhizobium meliloti Clr, C-terminally His6-tagged (Sinorhizobium meliloti); assay: SEC

Question: “Sinorhizobium meliloti Clr, C-terminally His6-tagged (natural protein)” was tested. Which stoichiometry N [1] did it give?
Answer: 2

Question: And the percent in the monomeric state (monomer-dimer equilibrium) [2]?
Answer: 86%
